Kd data for two molecules are collected here from paper PMC7954794 (2021).

No end group written: not given here.

Holding throughout (test): FP
Experiment [1] addresses NCK2 full-length recombinant protein (mouse, WT, tag-free) (mouse, UniProt O55033 1-380).
Experiment [2] has as its target NCK2 2|1|3 full-length recombinant protein (SH3-shuffled, tag-free) (mouse, UniProt O55033 114-170; O55033 60-113; O55033 2-59; O55033 171-380).
Experiment [3] deals with NCK2 2|3|1 full-length recombinant protein (SH3-shuffled, tag-free) (mouse, UniProt O55033 114-170; O55033 60-113; O55033 198-256; O55033 171-197; O55033 2-59; …).
The target in experiment [4] is NCK2 3|1|2 full-length recombinant protein (SH3-shuffled, tag-free) (mouse, UniProt O55033 198-256; O55033 60-113; O55033 2-59; O55033 171-197; O55033 114-170; …).
The target in experiment [5] is NCK2 1|3|2 full-length recombinant protein (SH3-shuffled, tag-free) (mouse, UniProt O55033 1-113; O55033 198-256; O55033 171-197; O55033 114-170; O55033 257-380).
Experiment [6] has as its target NCK2 3|2|1 full-length recombinant protein (SH3-shuffled, tag-free) (mouse, UniProt O55033 198-256; O55033 60-197; O55033 2-59; O55033 257-380).

NCK2 3|1|2 full-length recombinant protein (SH3-shuffled, tag-free), sequence (O55033 other isoform, or with tags, fused parts or gaps): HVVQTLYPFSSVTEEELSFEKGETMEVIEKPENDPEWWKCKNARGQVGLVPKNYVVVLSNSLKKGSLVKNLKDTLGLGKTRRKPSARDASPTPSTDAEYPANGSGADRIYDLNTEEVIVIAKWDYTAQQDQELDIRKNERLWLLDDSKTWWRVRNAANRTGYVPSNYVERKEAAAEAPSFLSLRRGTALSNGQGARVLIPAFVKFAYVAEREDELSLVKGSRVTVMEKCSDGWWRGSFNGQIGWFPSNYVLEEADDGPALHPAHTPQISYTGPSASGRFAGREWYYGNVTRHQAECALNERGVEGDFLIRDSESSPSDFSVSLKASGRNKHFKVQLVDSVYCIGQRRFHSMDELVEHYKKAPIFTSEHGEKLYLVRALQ
NCK2 full-length recombinant protein (mouse, WT, tag-free), sequence (O55033 whole entry): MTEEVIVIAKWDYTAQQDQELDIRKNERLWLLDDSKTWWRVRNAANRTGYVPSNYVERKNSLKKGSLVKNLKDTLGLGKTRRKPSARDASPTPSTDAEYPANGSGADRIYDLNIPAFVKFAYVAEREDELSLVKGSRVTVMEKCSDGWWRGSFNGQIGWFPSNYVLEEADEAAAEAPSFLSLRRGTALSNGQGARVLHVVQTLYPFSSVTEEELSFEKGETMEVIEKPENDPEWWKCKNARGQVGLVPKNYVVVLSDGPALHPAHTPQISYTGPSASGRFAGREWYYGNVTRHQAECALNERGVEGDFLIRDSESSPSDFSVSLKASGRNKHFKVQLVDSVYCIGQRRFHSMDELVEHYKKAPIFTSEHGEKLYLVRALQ
NCK2 2|3|1 full-length recombinant protein (SH3-shuffled, tag-free), sequence (O55033 other isoform, or with tags, fused parts or gaps): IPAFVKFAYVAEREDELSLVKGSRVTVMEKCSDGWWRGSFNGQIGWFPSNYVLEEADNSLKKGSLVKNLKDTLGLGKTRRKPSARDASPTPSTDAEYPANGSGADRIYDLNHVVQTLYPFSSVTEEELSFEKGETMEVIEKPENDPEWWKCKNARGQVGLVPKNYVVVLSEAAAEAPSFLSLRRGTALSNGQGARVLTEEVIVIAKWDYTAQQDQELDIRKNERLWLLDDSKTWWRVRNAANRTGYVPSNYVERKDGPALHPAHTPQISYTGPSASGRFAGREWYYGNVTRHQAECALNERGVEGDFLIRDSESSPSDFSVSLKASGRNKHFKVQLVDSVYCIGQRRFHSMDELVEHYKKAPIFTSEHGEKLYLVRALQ
NCK2 1|3|2 full-length recombinant protein (SH3-shuffled, tag-free), sequence (O55033 other isoform, or with tags, fused parts or gaps): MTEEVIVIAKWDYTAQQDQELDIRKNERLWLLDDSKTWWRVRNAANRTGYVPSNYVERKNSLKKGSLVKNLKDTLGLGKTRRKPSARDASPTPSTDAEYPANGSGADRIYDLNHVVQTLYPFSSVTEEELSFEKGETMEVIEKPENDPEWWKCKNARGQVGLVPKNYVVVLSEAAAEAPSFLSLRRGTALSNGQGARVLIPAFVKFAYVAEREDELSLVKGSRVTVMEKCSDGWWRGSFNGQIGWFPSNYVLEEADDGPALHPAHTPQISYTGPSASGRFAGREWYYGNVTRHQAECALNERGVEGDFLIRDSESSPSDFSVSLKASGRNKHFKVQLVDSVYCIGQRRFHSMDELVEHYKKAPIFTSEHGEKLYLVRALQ
NCK2 2|1|3 full-length recombinant protein (SH3-shuffled, tag-free), sequence (O55033 other isoform, or with tags, fused parts or gaps): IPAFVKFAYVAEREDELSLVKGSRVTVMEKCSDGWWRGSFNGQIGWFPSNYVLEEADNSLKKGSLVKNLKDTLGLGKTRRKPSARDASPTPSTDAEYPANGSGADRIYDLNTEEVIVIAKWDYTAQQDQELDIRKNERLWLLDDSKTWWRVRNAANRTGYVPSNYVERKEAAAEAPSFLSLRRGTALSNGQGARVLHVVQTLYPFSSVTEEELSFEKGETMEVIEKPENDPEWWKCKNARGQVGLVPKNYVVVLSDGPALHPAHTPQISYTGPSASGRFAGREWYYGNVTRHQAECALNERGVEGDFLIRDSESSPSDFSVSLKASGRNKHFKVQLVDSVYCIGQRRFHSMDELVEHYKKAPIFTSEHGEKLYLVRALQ
NCK2 3|2|1 full-length recombinant protein (SH3-shuffled, tag-free), sequence (O55033 other isoform, or with tags, fused parts or gaps): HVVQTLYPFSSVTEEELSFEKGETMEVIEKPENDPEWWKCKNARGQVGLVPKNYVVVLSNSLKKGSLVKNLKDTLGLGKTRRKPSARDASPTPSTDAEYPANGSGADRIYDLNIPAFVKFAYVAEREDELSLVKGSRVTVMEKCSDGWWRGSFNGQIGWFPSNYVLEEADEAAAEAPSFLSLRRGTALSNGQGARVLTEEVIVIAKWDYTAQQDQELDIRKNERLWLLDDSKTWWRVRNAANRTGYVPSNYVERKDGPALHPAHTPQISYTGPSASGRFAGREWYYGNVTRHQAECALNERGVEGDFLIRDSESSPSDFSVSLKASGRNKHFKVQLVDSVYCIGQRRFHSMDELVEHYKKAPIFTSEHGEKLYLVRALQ

Consider RGQNKERPPPVPNPDY (also: fluorescein isothiocyanate-conjugated (position not given here)) [Cd3ε peptide (RGQNKERPPPVPNPDY), fluorescein isothiocyanate-conjugated], for which the Kd in experiment [1] turned out to be 12.7 µM; in experiment [2], 18 µM; in experiment [3], 26.3 µM; in experiment [4], 16.2 µM; in experiment [5], 13.5 µM.
In the case of DIQDKPPAPPMRNTST (also: fluorescein isothiocyanate-conjugated (position not given here)) [PAK1 peptide (DIQDKPPAPPMRNTST), fluorescein isothiocyanate-conjugated], the Kd in experiment [1] was 36 µM; in experiment [3], 21.6 µM; in experiment [4], 54.8 µM; in experiment [5] it was 77.9 µM; in experiment [6] it was 31.6 µM.
